{"source": "patent US20060257938A1", "about": "“Method of screening for drugs that block ligand binding to a lipid binding protein” (priority 2005, published 2006)", "molecules": {"B1": {"name": "55S1, 72A (protein, listed as Rattus norvegicus)", "chain": "AFDGTWKVDRNENYEKFMEKMGINVVKRKLGAHDNLKLTITQEGNKFTVKESSNSRNIDVVFELGVDFAYSAADGTELTGTWTMEGNKLVGKFKRVDNGKELIAVREISGNELIQTYTYEGVEAKRIFKKE", "modifications": "PEPTIDE (1)...(131) wild-type rat intestinal fatty acid binding protein"}, "B2": {"name": "60K, 72A (protein, listed as Rattus norvegicus)", "chain": "B1 chain with S55F, V60K", "modifications": "PEPTIDE (1)...(131) wild-type rat intestinal fatty acid binding protein"}, "B3": {"name": "60F, 72A (protein, listed as Rattus norvegicus)", "chain": "B1 chain with S55F, V60F", "modifications": "PEPTIDE (1)...(131) wild-type rat intestinal fatty acid binding protein"}, "B4": {"name": "60C, 72A (protein, listed as Rattus norvegicus)", "chain": "B1 chain with S55F, V60C", "modifications": "PEPTIDE (1)...(131) wild-type rat intestinal fatty acid binding protein"}, "B5": {"name": "60G, 72A (protein, listed as Rattus norvegicus)", "chain": "B1 chain with S55F, V60G", "modifications": "PEPTIDE (1)...(131) wild-type rat intestinal fatty acid binding protein"}, "B6": {"name": "55Y3, 72A (protein, listed as Rattus norvegicus)", "chain": "B1 chain with S55Y", "modifications": "PEPTIDE (1)...(131) wild-type rat intestinal fatty acid binding protein"}, "B7": {"name": "60N, 72A (protein, listed as Rattus norvegicus)", "chain": "B1 chain with S55F, V60N", "modifications": "PEPTIDE (1)...(131) wild-type rat intestinal fatty acid binding protein"}, "B8": {"name": "60H, 72A (protein, listed as Rattus norvegicus)", "chain": "B1 chain with S55F, V60H", "modifications": "PEPTIDE (1)...(131) wild-type rat intestinal fatty acid binding protein"}, "B9": {"name": "60P, 72A (protein, listed as Rattus norvegicus)", "chain": "B1 chain with S55F, V60P", "modifications": "PEPTIDE (1)...(131) wild-type rat intestinal fatty acid binding protein"}, "B10": {"name": "60A, 72A (protein, listed as Rattus norvegicus)", "chain": "B1 chain with S55F, V60A", "modifications": "PEPTIDE (1)...(131) wild-type rat intestinal fatty acid binding protein"}, "B11": {"name": "55W2, 72A (protein, listed as Rattus norvegicus)", "chain": "B1 chain with S55W", "modifications": "PEPTIDE (1)...(131) wild-type rat intestinal fatty acid binding protein"}, "B12": {"name": "60I, 72A (protein, listed as Rattus norvegicus)", "chain": "B1 chain with S55F, V60I", "modifications": "PEPTIDE (1)...(131) wild-type rat intestinal fatty acid binding protein"}, "B13": {"name": "60R, 72A (protein, listed as Rattus norvegicus)", "chain": "B1 chain with S55F, V60R", "modifications": "PEPTIDE (1)...(131) wild-type rat intestinal fatty acid binding protein"}, "B14": {"name": "60M, 72A (protein, listed as Rattus norvegicus)", "chain": "B1 chain with S55F, V60M", "modifications": "PEPTIDE (1)...(131) wild-type rat intestinal fatty acid binding protein"}, "B15": {"name": "55T1, 72A (protein, listed as Rattus norvegicus)", "chain": "B1 chain with S55T", "modifications": "PEPTIDE (1)...(131) wild-type rat intestinal fatty acid binding protein"}, "B16": {"name": "60Q, 72A (protein, listed as Rattus norvegicus)", "chain": "B1 chain with S55F, V60Q", "modifications": "PEPTIDE (1)...(131) wild-type rat intestinal fatty acid binding protein"}, "B17": {"name": "60L, 72A (protein, listed as Rattus norvegicus)", "chain": "B1 chain with S55F, V60L", "modifications": "PEPTIDE (1)...(131) wild-type rat intestinal fatty acid binding protein"}}, "note": "Numbering of substitutions follows the chain as printed. Values joined by “and” are separate entries in the source; they are usually repeats but may differ in a detail not shown here. Equal values may be shown once."}
{"test": "Probe fluorescence ratio response to linolenic acid relative to ADIFAB2", "assay_type": "binding", "settings": "response relative to ADIFAB2", "method_in_brief": "(§1)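 Each fatty acid's response was expressed relative to ADIFAB2, the rI-FABP-L72A probe, as ΔR/ΔRreference. ΔR is the change in the background-corrected two-wavelength intensity ratio R=Fλ1/Fλ2 from its analyte-free baseline R0. Emission was read near about 420-480 nm for unbound and about 495-580 nm for FFA-bound probe.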"}
{"molecule": "B1", "DR/DR LNA": 0.43}
{"molecule": "B2", "DR/DR LNA": "0.57 and 0.582"}
{"molecule": "B3", "DR/DR LNA": "1.76 and 1.762"}
{"molecule": "B4", "DR/DR LNA": 1.36}
{"molecule": "B5", "DR/DR LNA": 0.24}
{"molecule": "B6", "DR/DR LNA": 0.34}
{"molecule": "B7", "DR/DR LNA": 1.59}
{"molecule": "B8", "DR/DR LNA": 0.18}
{"molecule": "B9", "DR/DR LNA": 0.77}
{"molecule": "B10", "DR/DR LNA": "0.94 and 0.938"}
{"molecule": "B11", "DR/DR LNA": 0.82}
{"molecule": "B12", "DR/DR LNA": "1.63 and 1.632"}
{"molecule": "B13", "DR/DR LNA": 0.14}
{"molecule": "B14", "DR/DR LNA": 0.93}
{"molecule": "B15", "DR/DR LNA": 1.27}
{"molecule": "B16", "DR/DR LNA": 0.42}
{"molecule": "B17", "DR/DR LNA": 1.26}
{"test": "Probe fluorescence ratio response to arachidonic acid relative to ADIFAB2", "assay_type": "binding", "settings": "Arachidonic acid; response relative to ADIFAB2", "method_in_brief": "as §1"}
{"molecule": "B1", "DR/DR AA": 0.48}
{"molecule": "B2", "DR/DR AA": 0.46}
{"molecule": "B3", "DR/DR AA": 1.79}
{"molecule": "B4", "DR/DR AA": 1.30}
{"molecule": "B5", "DR/DR AA": 0.29}
{"molecule": "B6", "DR/DR AA": 0.47}
{"molecule": "B7", "DR/DR AA": 1.24}
{"molecule": "B8", "DR/DR AA": 0.17}
{"molecule": "B9", "DR/DR AA": 0.62}
{"molecule": "B10", "DR/DR AA": 0.79}
{"molecule": "B11", "DR/DR AA": 0.77}
{"molecule": "B12", "DR/DR AA": 1.54}
{"molecule": "B13", "DR/DR AA": 0.14}
{"molecule": "B14", "DR/DR AA": 0.77}
{"molecule": "B15", "DR/DR AA": 1.26}
{"molecule": "B16", "DR/DR AA": 0.36}
{"molecule": "B17", "DR/DR AA": 1.08}
{"test": "Probe fluorescence ratio response to arachidonic acid relative to ADIFAB2", "assay_type": "binding", "settings": "arachidonic acid; response relative to ADIFAB2", "method_in_brief": "as §1"}
{"molecule": "B2", "DR/DR AA": 0.461}
{"molecule": "B3", "DR/DR AA": 1.792}
{"molecule": "B10", "DR/DR AA": 0.787}
{"molecule": "B12", "DR/DR AA": 1.539}
{"molecule": "B17", "DR/DR AA": 1.075}
{"test": "Probe fluorescence ratio response to palmitic acid relative to ADIFAB2", "assay_type": "binding", "settings": "response relative to ADIFAB2", "method_in_brief": "as §1"}
{"molecule": "B1", "DR/DR PA": 0.41}
{"molecule": "B2", "DR/DR PA": "0.35 and 0.310"}
{"molecule": "B3", "DR/DR PA": "1.53 and 1.526"}
{"molecule": "B4", "DR/DR PA": 1.04}
{"molecule": "B5", "DR/DR PA": 0.19}
{"molecule": "B6", "DR/DR PA": 0.25}
{"molecule": "B7", "DR/DR PA": 1.30}
{"molecule": "B8", "DR/DR PA": 0.12}
{"molecule": "B9", "DR/DR PA": 0.37}
{"molecule": "B10", "DR/DR PA": "0.74 and 0.742"}
{"molecule": "B11", "DR/DR PA": 0.63}
{"molecule": "B12", "DR/DR PA": 1.52}
{"molecule": "B13", "DR/DR PA": 0.08}
{"molecule": "B14", "DR/DR PA": 0.76}
{"molecule": "B15", "DR/DR PA": 1.12}
{"molecule": "B16", "DR/DR PA": 0.35}
{"molecule": "B17", "DR/DR PA": "1.10 and 1.095"}
{"test": "Probe fluorescence ratio response to linoleic acid relative to ADIFAB2", "assay_type": "binding", "settings": "response relative to ADIFAB2", "method_in_brief": "as §1"}
{"molecule": "B1", "DR/DR LA": 0.42}
{"molecule": "B2", "DR/DR LA": "0.62 and 0.619"}
{"molecule": "B3", "DR/DR LA": "1.68 and 1.684"}
{"molecule": "B4", "DR/DR LA": 1.33}
{"molecule": "B5", "DR/DR LA": 0.25}
{"molecule": "B6", "DR/DR LA": 0.32}
{"molecule": "B7", "DR/DR LA": 1.57}
{"molecule": "B8", "DR/DR LA": 0.17}
{"molecule": "B9", "DR/DR LA": 0.81}
{"molecule": "B10", "DR/DR LA": "0.98 and 0.977"}
{"molecule": "B11", "DR/DR LA": 0.79}
{"molecule": "B12", "DR/DR LA": 1.73}
{"molecule": "B13", "DR/DR LA": 0.12}
{"molecule": "B14", "DR/DR LA": 1.01}
{"molecule": "B15", "DR/DR LA": 1.25}
{"molecule": "B16", "DR/DR LA": 0.41}
{"molecule": "B17", "DR/DR LA": "1.29 and 1.285"}
{"test": "Probe fluorescence ratio response to oleic acid relative to ADIFAB2", "assay_type": "binding", "settings": "response relative to ADIFAB2", "method_in_brief": "as §1"}
{"molecule": "B1", "DR/DR OA": 0.41}
{"molecule": "B2", "DR/DR OA": "0.60 and 0.626"}
{"molecule": "B3", "DR/DR OA": "1.90 and 1.896"}
{"molecule": "B4", "DR/DR OA": 1.34}
{"molecule": "B5", "DR/DR OA": 0.24}
{"molecule": "B6", "DR/DR OA": 0.33}
{"molecule": "B7", "DR/DR OA": 1.54}
{"molecule": "B8", "DR/DR OA": 0.17}
{"molecule": "B9", "DR/DR OA": 0.81}
{"molecule": "B10", "DR/DR OA": "0.94 and 0.936"}
{"molecule": "B11", "DR/DR OA": 0.70}
{"molecule": "B12", "DR/DR OA": "1.72 and 1.723"}
{"molecule": "B13", "DR/DR OA": 0.13}
{"molecule": "B14", "DR/DR OA": 0.91}
{"molecule": "B15", "DR/DR OA": 1.28}
{"molecule": "B16", "DR/DR OA": 0.41}
{"molecule": "B17", "DR/DR OA": "1.27 and 1.272"}
